Experimental data as given in patent US20090155176A1.
pIC50: −log10 of the molar value.

Target: LFA-1 (lymphocyte function-associated antigen-1), purified heterodimer captured on ELISA plates (human) (UniProt P20701)
Assay: competition ELISA (LFA-1/ICAM-1-Ig)
Conditions: ligand

LFA-1 (lymphocyte function-associated antigen-1), purified heterodimer captured on ELISA plates (human), sequence (P20701 26-1170, chain 1 of 2): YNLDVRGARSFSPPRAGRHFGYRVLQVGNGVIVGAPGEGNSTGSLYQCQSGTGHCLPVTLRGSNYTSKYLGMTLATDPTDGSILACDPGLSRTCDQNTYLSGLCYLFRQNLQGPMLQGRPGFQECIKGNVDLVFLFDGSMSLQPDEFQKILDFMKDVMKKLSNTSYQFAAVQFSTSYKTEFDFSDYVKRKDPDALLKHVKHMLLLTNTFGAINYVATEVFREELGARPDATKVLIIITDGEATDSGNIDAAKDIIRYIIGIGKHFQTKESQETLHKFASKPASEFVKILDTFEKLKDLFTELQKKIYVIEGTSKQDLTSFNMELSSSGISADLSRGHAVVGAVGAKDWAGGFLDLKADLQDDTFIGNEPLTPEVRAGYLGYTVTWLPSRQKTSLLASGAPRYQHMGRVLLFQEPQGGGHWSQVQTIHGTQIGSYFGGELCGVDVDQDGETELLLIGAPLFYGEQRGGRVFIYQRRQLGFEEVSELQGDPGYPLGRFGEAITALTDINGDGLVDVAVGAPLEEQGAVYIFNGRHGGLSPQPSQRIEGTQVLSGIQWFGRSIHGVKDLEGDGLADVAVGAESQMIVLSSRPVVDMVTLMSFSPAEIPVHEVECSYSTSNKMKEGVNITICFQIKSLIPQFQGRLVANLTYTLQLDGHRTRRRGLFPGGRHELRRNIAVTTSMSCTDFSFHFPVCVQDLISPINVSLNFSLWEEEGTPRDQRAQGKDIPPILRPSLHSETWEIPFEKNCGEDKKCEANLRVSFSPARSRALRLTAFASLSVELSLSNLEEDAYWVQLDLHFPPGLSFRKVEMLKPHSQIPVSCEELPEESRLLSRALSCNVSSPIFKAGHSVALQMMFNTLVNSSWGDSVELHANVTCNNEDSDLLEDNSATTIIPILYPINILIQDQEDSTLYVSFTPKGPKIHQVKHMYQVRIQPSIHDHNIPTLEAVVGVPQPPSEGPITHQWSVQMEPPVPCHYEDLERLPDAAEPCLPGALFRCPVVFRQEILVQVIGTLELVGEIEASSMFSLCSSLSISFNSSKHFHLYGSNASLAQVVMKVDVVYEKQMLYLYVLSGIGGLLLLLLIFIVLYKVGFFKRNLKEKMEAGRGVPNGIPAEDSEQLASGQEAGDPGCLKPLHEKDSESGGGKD
LFA-1 (lymphocyte function-associated antigen-1), purified heterodimer captured on ELISA plates (human), sequence (P05107 23-769, chain 2 of 2, further chain): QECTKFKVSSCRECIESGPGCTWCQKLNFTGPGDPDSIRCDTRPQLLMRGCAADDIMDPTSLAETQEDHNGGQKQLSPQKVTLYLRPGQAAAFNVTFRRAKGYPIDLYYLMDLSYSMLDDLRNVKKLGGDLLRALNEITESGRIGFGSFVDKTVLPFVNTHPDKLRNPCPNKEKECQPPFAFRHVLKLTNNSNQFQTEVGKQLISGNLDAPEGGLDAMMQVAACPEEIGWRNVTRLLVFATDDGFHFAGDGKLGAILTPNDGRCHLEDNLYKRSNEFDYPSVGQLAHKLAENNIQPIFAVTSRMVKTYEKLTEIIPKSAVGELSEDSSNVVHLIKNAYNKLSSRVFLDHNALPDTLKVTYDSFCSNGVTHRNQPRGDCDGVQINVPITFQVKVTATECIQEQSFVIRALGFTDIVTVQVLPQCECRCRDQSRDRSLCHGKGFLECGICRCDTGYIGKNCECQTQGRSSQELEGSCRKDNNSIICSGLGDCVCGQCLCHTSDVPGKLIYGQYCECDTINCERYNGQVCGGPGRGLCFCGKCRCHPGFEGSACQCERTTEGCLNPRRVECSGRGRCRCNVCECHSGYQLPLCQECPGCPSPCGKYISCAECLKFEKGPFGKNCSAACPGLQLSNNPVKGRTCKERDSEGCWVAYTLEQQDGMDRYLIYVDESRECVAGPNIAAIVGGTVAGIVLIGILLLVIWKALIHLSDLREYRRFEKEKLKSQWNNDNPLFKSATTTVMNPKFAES
sICAM-1 (soluble ICAM-1), sequence (P05362 28-480): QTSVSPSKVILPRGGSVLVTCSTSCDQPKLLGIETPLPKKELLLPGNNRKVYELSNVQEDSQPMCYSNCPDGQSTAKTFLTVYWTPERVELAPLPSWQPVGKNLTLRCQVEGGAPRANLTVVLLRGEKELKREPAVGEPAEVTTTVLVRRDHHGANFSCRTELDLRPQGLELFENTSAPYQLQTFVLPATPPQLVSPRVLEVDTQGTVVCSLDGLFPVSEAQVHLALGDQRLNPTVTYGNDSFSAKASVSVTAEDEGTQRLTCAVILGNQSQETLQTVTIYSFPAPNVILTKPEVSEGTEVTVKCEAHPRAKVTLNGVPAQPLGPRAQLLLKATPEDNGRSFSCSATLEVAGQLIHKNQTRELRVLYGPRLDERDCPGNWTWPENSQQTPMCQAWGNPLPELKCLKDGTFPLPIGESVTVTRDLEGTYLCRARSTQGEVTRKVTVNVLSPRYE

sICAM-1 (soluble ICAM-1) (from UniProt P05362 28-480)
pIC50: 6.54
